The experiment deals with Avs8A (ECOR07), fused to 6xHis-SUMO (E. coli ECOR07) (UniProt B7LDL1). Put plainly: MST.

On to “Basel 21 major capsid protein (natural protein)”, for which the Kd came to 14 nM.

The values are drawn from publication PMC12236752.
